Results published in patent publication US20090269356, “Complement Binding Aptamers and Anti-C5 Agents Useful in the Treatment of Ocular Disorders” (published 2009).

Tests used:
C5a des Arg = C5a des Arg (Homo sapiens, UniProt P01031 P01031:678-750); test: filter; printed >>3 uM; PBS, 1 mM MgCl2, BSA, tRNA, 25 or 37 C; conditions: tags: Complement Technologies A145.6; label: 5'-32P; stem-loop
Method: (§1) The specificity of ARC186 (SEQ ID NO: 4) for C5 was also assessed in nitrocellulose filtration assays by comparison with complement components both upstream and downstream from C5 in the complement cascade. Purified human proteins and protein complexes were purchased from Complement Technologies (Iyler, Tex.) including: C1q (cat. # A099.18; 2.3 μM), C3 (cat. # A113c.8; 27 μM, C5 (cat. # A120.14; 5.4 μM), C5a des Arg (cat. # A145.6; 60 μM), sC5b-9 (cat. # A127.6; 1 μM), factor B (cat. # A135.12; 11 μM) and factor H (cat #A137.13P; 6.8 μM). Binding reactions were established by performing serial dilutions of protein in PBS plus 1 mM MgCl₂, 0.02 mg (mL BSA and 0.002 mg/mL tRNA, incubating for 14 hours at 25° C. or 37° C., and then applied to the nitrocellulose filtration apparatus as described above. Dissociation constants KD were determined from semi-log plots of % nitrocellulose binding versus [C5] by a fit of the data to the equation: % nitrocellulose binding=amplitude×[C5]/(KD+[C5]).

complement C1q = complement C1q (Homo sapiens, UniProt P02745;P02746;P02747 P02745:23-245,P02746:28-253,P02747:29-245); test: filter; PBS, 1 mM MgCl2, BSA, tRNA; conditions: tags: Complement Technologies A099.18; chain copies: 6; label: 5'-32P; stem-loop
Method: as §1

sC5b-9 complex = sC5b-9 complex (Homo sapiens, UniProt P01031;P01031;P13671;P10643;P07357;P07358;P07360;P02748;P04004 …); test: filter; PBS, 1 mM MgCl2, BSA, tRNA, 25 or 37 C; conditions: tags: Complement Technologies A127.6; label: 5'-32P; stem-loop
Method: as §1

[1] = molecular target: complement C5 in human serum/blood (Homo sapiens, UniProt P01031); test: inhibition; CH50 hemolysis, 0.2% human serum, 37 C; conditions: protein: extract; label: 5'-32P; stem-loop
Text: The CH50 test measures the ability of the complement system in a serum test sample to lyse 50% of cells in a standardized suspension of antibody-coated sheep erythrocytes. A solution of 0.2% human serum was mixed with antibody-coated sheep erythrocytes (Diamedix EZ Complement CH50 Kit, Diamedix Corp., Miami, Fla.) in the presence or absence of various anti-C5 aptamers. The assay was run according to the kit protocol in veronal-buffered saline containing calcium, magnesium and 1% gelatin (GVB⁺⁺ complement buffer) and incubated for 30 minutes at 37° C. After incubation, the samples were centrifuged to pellet intact erythrocytes. The optical density at 412 nm (OD₄₁₂) of the supernatant was read to quantify the release of soluble hemoglobin, which is proportional to the extent of hemolysis (Green et al., (1995) Chem. Biol. 2:683-95). To verify that the aptamers blocked C5 activation, some hemolysis supernatants were analyzed for the presence of C5a and C5b-9 by ELISA (C5b-9 ELISA kit, Quidel, San Diego, Calif.; C5a ELISA kit, BD Biosciences, San Diego, Calif.) following the ELISA kit protocols.

[2] = molecular target: T1, complement C5 (full length) (Homo sapiens, UniProt P01031); test: filter; PBS, 1 mM MgCl2, 23 C, 4 h; 0.6 nM at 37 C; kinetic estimate 0.07 nM (koff 0.013 /min, kon 0.18 /nM/min); conditions: tags: Quidel / Complement Technologies A120.14 / Advanced Research Technologies; label: 5'-32P; stem-loop
Method: The binding reactions were analyzed by nitrocellulose filtration using a Minifold I dot-blot, 96-well vacuum filtration manifold (Schleicher & Schuell, Keene, N.H.). A three-layer filtration medium was used, consisting (from top to bottom) of Protran nitrocellolose (Schleicher & Schuell), Hybond-P nylon (Amersham Biosciences, Piscataway, N.J.) and GB002 gel blot paper (Schleicher & Schuell). The nitrocellulose layer, which selectively binds protein over nucleic acid, preferentially retained the anti-C5 aptamer in complex with a protein ligand, while non-complexed anti-C5 aptamer passed through the nitrocellulose and adhered to the nylon. The gel blot paper was included simply as a supporting medium for the other filters. Following filtration, the filter layers were separated, dried and exposed on a phosphor screen (Amersham Biosciences) and quantified using a Storm 860 Phosphorimager® blot imaging system (Amersham Biosciences).
To analyze the association reaction, the equilibration rate constant (keq) for the formation of C5·ARC186 was measured in the presence of varying concentrations of C5 protein (1-5 nM). Complex formation was initiated by mixing together C5 protein and radiolabeled ARC186 in PBS containing 1 mM MgCl₂ at room temperature (23° C.), and stopped by nitrocellulose filtration partitioning. […]

complement C3 = complement C3 (Homo sapiens, UniProt P01024;P01024 P01024:23-667,P01024:672-1663); test: filter; non-activated C3 essentially does not bind; conditions: tags: Complement Technologies A113c.8; label: 5'-32P; stem-loop
Method: as §1

[3] = molecular target: T1, complement C5 (full length); test: filter; dot blot; conditions: tags: Quidel / Complement Technologies A120.14 / Advanced Research Technologies
Method: (§2) The selection progress was monitored using a sandwich filter binding (dot blot) assay. The 5′-³²P-labeled pool RNA (trace concentration) was incubated with C5, 1×DPBS plus 0.1 mg/mL tRNA and 0.1 mg/mL salmon sperm DNA, for 30 minutes at room temperature, and then applied to a nitrocellulose and nylon filter sandwich in a dot blot apparatus (Schleicher and Schuell). The percentage of pool RNA bound to the nitrocellulose was calculated and monitored approximately every 3 rounds with a single point screen (+/−300 nM C5). Pool Kd measurements were measured using a titration of protein and the dot blot apparatus as described above.
(§3) Six constructs based on ARC913 (SEQ ID NO: 75) were transcribed, gel purified, and tested in dot blots for binding to C5.

[4] = molecular target: T1, complement C5 (full length); test: filter; dot blot, no binding; conditions: tags: Quidel / Complement Technologies A120.14 / Advanced Research Technologies
[5] = molecular target: T1, complement C5 (full length); test: filter; among 11 best clones in 500 nM screen; Kd not given; conditions: tags: Quidel / Complement Technologies A120.14 / Advanced Research Technologies
Method: (§4) Doped reselection data. Both the normal and high salt selections were enriched after 5 rounds over the naïve pool. At round 5 the pool Kd was approximately 165 nM for the high salt selection and 175 nM for the normal salt selection. The extent of binding was about 20% at the plateau in both. The R4 pools were cloned using TOPO TA cloning kit (Invitrogen, Carlsbad, Calif.), and 48 clones from each pool were sequenced. 12 clones from each pool were transcribed and assayed in a single point dot blot assay at 500 nM C5. Dissociation constants (Kds) were again measured using the dot blot assay previously described. Kds were estimated for the 11 best clones identified in the single point screen, by fitting the data to the equation: fraction RNA bound=amplitude*Kd/(Kd+[C5]). The clones with the three best Kds were SEQ ID NO: 91 (73 nM), SEQ ID NO: 96 (84 nM) and SEQ ID NO: 95 (92 nM). The sequences for these 11 clones are listed below in Table 5.

[6] = molecular target: T1, complement C5 (full length); test: filter; dot blot, DPBS; conditions: tags: Quidel / Complement Technologies A120.14 / Advanced Research Technologies
Method: as §2
as §4, with “Kds were estimated for the 11 best clones identified in the single point screen, by fitting the data to the equation: fraction RNA bound=amplitude*Kd/(Kd+[C5]). The clones with the three best Kds were SEQ ID NO: 91 (73 nM), SEQ ID NO: 96 (84 nM) and SEQ ID NO: 95 (92 nM). The sequences for these 11 clones are listed below in Table 5.” left out

[7] = molecular target: T1, complement C5 (full length); test: filter; dot blot; 20% plateau; listing entry for SEQ 81 differs in length, printed sequence used; conditions: tags: Quidel / Complement Technologies A120.14 / Advanced Research Technologies
Method: as §2, §3

T1 sequence (P01031 whole entry): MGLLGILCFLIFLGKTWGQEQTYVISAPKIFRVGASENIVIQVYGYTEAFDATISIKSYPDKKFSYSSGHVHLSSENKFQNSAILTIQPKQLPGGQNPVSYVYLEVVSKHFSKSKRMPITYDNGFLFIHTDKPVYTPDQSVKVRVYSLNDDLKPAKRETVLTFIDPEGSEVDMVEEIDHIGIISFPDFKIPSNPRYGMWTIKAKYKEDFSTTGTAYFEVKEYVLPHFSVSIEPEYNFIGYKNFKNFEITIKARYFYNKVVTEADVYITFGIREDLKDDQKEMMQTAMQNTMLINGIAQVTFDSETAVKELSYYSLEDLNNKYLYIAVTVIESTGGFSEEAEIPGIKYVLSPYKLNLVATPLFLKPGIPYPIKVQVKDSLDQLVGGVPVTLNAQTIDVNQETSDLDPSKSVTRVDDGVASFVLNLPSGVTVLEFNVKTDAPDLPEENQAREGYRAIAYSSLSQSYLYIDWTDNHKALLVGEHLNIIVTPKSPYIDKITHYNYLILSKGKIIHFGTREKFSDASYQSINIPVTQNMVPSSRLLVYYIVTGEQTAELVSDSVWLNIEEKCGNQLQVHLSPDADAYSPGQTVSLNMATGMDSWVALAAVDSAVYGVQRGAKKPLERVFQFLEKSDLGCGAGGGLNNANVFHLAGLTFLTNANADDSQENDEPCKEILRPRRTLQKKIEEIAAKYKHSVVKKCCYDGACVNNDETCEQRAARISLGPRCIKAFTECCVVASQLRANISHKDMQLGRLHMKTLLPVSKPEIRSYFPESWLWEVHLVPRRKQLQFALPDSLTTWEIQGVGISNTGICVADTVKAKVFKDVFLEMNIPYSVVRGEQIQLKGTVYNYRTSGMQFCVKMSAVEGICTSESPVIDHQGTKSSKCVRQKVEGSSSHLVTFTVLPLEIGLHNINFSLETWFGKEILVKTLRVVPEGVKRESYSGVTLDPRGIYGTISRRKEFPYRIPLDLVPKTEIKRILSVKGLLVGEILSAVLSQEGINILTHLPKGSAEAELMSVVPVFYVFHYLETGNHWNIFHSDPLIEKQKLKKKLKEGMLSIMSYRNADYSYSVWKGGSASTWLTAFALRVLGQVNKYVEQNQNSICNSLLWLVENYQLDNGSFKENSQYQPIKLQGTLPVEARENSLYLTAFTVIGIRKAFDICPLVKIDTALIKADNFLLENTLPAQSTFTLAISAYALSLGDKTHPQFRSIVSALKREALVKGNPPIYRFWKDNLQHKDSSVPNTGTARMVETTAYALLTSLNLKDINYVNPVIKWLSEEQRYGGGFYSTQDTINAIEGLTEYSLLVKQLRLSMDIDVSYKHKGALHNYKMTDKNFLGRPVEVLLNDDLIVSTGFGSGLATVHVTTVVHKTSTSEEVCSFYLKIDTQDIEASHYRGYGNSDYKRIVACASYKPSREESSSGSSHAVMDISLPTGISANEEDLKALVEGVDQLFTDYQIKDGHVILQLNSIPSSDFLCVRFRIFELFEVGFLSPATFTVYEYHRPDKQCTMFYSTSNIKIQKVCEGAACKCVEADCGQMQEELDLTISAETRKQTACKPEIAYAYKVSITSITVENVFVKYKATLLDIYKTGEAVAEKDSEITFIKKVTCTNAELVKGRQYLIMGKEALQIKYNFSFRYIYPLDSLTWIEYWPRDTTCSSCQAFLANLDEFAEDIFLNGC
Sequence of complement C3 (P01024 23-667, chain 1 of 2): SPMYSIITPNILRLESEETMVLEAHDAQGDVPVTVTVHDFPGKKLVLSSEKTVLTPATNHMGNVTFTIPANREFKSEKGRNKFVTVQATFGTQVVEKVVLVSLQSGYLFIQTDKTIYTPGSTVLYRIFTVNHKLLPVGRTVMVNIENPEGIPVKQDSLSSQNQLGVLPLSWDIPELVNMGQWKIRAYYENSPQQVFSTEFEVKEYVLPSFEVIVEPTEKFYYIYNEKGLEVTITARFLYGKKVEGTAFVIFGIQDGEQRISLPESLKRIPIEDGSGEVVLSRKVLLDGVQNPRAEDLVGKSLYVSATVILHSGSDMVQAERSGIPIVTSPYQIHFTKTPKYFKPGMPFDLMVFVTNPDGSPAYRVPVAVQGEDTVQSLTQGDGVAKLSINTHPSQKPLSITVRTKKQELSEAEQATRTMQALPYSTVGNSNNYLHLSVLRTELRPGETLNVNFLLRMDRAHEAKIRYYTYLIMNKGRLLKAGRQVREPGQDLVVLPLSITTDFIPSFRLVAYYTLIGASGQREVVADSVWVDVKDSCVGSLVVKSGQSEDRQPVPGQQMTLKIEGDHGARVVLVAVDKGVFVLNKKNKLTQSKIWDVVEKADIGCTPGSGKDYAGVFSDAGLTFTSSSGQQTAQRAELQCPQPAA
Sequence of complement C3 (P01024 672-1663, chain 2 of 2): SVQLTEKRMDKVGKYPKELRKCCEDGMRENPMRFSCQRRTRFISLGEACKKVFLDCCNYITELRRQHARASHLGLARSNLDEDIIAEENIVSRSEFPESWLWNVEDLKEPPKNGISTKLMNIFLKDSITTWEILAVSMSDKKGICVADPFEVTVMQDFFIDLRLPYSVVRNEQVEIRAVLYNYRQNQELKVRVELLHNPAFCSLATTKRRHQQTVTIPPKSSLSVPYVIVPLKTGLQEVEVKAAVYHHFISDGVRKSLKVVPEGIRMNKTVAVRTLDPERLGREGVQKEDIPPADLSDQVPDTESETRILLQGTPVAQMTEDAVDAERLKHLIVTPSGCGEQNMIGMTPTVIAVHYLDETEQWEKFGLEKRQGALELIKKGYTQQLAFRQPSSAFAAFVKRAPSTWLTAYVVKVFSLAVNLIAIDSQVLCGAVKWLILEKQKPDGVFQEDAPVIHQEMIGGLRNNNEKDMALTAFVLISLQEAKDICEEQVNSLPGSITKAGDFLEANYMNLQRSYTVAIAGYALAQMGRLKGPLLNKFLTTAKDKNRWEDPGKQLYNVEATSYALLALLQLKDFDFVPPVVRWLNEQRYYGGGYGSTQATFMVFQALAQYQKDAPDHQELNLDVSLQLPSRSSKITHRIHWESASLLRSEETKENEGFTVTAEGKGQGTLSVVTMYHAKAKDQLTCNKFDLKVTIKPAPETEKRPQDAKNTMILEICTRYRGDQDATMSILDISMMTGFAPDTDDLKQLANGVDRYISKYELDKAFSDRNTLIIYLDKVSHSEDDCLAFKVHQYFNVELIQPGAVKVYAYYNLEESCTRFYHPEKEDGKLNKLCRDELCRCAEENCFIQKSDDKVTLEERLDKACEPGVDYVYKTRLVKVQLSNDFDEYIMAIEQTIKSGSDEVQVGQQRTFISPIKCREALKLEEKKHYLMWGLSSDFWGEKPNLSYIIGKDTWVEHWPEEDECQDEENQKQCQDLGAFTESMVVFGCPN
Sequence of C5a des Arg (P01031 678-750, one chain of several): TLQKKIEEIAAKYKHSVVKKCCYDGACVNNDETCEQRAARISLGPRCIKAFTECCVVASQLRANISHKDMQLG
Sequence of complement C5 in human serum/blood (P01031 whole entry): as the sequence (P01031 whole entry) above
Sequence of complement C1q (P02745 23-245, chain 1 of 3): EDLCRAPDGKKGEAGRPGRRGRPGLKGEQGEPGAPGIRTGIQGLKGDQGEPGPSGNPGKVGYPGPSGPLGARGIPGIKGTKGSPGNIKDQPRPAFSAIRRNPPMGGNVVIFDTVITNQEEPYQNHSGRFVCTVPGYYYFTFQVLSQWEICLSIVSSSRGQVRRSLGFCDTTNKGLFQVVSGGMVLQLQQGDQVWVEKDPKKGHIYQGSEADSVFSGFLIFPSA
Sequence of complement C1q (P02746 28-253, chain 2 of 3): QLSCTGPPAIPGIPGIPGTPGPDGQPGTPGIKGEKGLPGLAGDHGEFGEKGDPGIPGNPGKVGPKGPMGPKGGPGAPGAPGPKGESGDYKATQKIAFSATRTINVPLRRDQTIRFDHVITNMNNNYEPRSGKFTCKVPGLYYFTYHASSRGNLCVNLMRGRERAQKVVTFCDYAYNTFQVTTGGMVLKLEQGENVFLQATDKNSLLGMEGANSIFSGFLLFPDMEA
Sequence of complement C1q (P02747 29-245, chain 3 of 3): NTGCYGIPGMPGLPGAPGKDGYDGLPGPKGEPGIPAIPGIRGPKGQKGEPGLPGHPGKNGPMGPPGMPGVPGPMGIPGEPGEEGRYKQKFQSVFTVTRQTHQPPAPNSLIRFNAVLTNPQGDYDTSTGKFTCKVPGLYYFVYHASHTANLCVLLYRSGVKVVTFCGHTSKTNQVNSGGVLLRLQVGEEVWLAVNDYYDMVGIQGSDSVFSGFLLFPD

Q: Which results are given for CGCCGCGGUCUCAGGCGCUGAGUCUGAGUUUACCUGCG (ssRNA, 2'-F all C and U; 2'-OMe purines except three 2'-OH purines; 3' inverted dT) [ARC186]?
A: Kd (C5a des Arg): > 3000 nM; Kd (complement C1q): > 300 nM; Kd (sC5b-9 complex): > 200 nM; IC50 [1]: 0.5 nM; Kd [2]: 0.08 nM; binding result (complement C3): no binding

Q: For CCUUGGUUUGGCACAGGCAUACAUACGCAGGG (mixed, dRmY: A,G deoxy; C,U 2'-OMe) [ARC874], which Kd [3] is on record?
A: 1000 nM

Q: Does CCUUGGUUUGGCACAGGCAUACAAACGCAGGG (mixed, dRmY: A,G deoxy; C,U 2'-OMe) [ARC875] bind [4]?
A: no binding

Q: Does GGGUUUGGCACAGGCAUACAUACCC (mixed, dRmY: A,G deoxy; C,U 2'-OMe) [ARC876] bind [4]?
A: no binding

Q: Does GGGUUUGGCACAGGCAUACAAACCC (mixed, dRmY: A,G deoxy; C,U 2'-OMe) [ARC877] bind [4]?
A: no binding

Q: Does GGCGGCACAGGCAUACAUACGCAGGGGUCGCC (mixed, dRmY: A,G deoxy; C,U 2'-OMe) [ARC878] bind [4]?
A: no binding

B1: doped clone SEQ 88 (mixed)
RNA: GGGAGAGGAGAGAACGUUCUACCUUGGUUUGGCACAGGCAUACAUACGCAGGGGUCGAUCGGUUACGACUAGCAUCGAUG
modifications: dRmY: A,G deoxy; C,U 2'-OMe
Q: Does B1 bind [5]?
A: binds

B2: doped clone SEQ 89 (mixed)
RNA: GGGAGAGGAGAGAACGUUCUACCUUGGUUUGGCACAGGCAUACAUACGCAGGUGUCGAUCUGUUACGACUAGCAUCGAUG
modifications: dRmY: A,G deoxy; C,U 2'-OMe
Q: Does B2 bind [5]?
A: binds

B3: doped clone SEQ 90 (mixed)
RNA: GGGAGAGGAGAGAACGUUCUACCUUGGUUUGGCACAGGCAUAAAUACGCAGGGCUCGAUCGGUUACGACUAGCAUCGAUG
modifications: dRmY: A,G deoxy; C,U 2'-OMe
Q: Does B3 bind [5]?
A: binds

B4: doped clone SEQ 92 (mixed)
RNA: GGGAGAGGAGAGAACGUUCUACCUUGGUUUGGCGCAGGCAUACAUACGCAGGUCGAUCGGUUACGACUAGCAUCGAUG
modifications: dRmY: A,G deoxy; C,U 2'-OMe
Q: Does B4 bind [5]?
A: binds

B5: doped clone SEQ 91 (mixed)
RNA: GGGAGAGGAGAGAACGUUCUACCUUGGUUUGGCCCAGGCAUAUAUACGCAGGGAUUGAUCCGUUACGACUAGCAUCGAUG
modifications: dRmY: A,G deoxy; C,U 2'-OMe
Q: How did the Kd [6] turn out when B5 was run?
A: 73 nM

B6: doped clone SEQ 93 (mixed)
RNA: GGGAGAGGAGAGAACGUUCUACCUUGUUGUGGCACAGCCAACCCUACGCACGGAUCGCCCGGUUACGACUAGCAUCGAUG
modifications: dRmY: A,G deoxy; C,U 2'-OMe
Q: Does B6 bind [5]?
A: binds

B7: doped clone SEQ 94 (mixed)
RNA: GGGAGAGGAGAGAACGUUCUACCUUGGUUUGGCACAGGCAUACAUACGCAGGUCGAUCGGUUACGACUA
modifications: dRmY: A,G deoxy; C,U 2'-OMe
Q: Does B7 bind [5]?
A: binds

B8: doped clone SEQ 97 (mixed)
RNA: GGGAGAGGAGAGAACGUUCUACCUUUCUCUGCCACAAGCAUACCUUCGCGGGGUUCUAUUGGUUACGACUAGCAUCGAUG
modifications: dRmY: A,G deoxy; C,U 2'-OMe
Q: Does B8 bind [5]?
A: binds

B9: doped clone SEQ 98 (mixed)
RNA: GGGAGAGGAGAGAACGUUCUACCUUGGUUUGGCACAGGCAUAUAUACGCAGGGUCGAUCCGUUACGACUAGCAUCGAUG
modifications: dRmY: A,G deoxy; C,U 2'-OMe
Q: Does B9 bind [5]?
A: binds

B10: doped clone SEQ 95 (mixed)
RNA: GGGAGAGGAGAGAACGUUCUACCUUAGGUUCGCACUGUCAUACAUACACACGGGCAAUCGGUUACGACUAGCAUCGAUG
modifications: dRmY: A,G deoxy; C,U 2'-OMe
Q: For B10, which Kd [6] is on record?
A: 92 nM

Q: Which Kd [7] does the source give for CGUUCUACCUUGGUUUGGCACAGGCAUACAUACGCAGGGGUCGAUCG (mixed, dRmY: A,G deoxy; C,U 2'-OMe) [ARC954] here?
A: 130 nM
